Here are results for six molecules from patent publication US6365373 (Genentech, dated 2002).

B1: NGF127 (ligand)
chain: SSSHPIFHRGEFSVCDSESLWVTDKTTATDIKGKEVMVLGEVNINNSVFKQYFFETKCRDPNPVDSGCRGIDSKHWNSQCKTTQTFVKALTMDGKQAAWRFIRIDTACVCVLSRKAVRRA
B2: NGF131 (ligand)
chain: B1 chain with E18V, T29I, Q79Y, K81T, F86Y
notes: also called NGF31
B3: NGF1234 (ligand)
chain: B1 chain with T29I, F86Y
B4: NGFR3 (ligand)
chain: B1 chain with L20V, Q79Y
B5: NGFR2 (ligand)
chain: B1 chain with E18V, Q79Y
B6: NGF130 (ligand)
chain: B1 chain with E18V, Q79Y, K81T, F86Y

Changes are numbered by the printed parent chain.

The target of the first experiment is T1, human trkC receptor immunoadhesin (trkC extracellular domain fused to immunoglobulin constant domains) (human, UniProt Q16288 32-429).
T1 construct: extracellular domain; not shown: immunoglobulin constant domains
Nature of the experiment: competitive displacement of labeled NT-3 from human trkC immunoadhesin, 96-well plate.
B1 registered an IC50mut/IC50NGF12 of 2.2 ratio and an IC50mut/IC50NT-3 of 33 ratio.

Consider B2, for which the IC50mut/IC50NGF12 stood at 0.2 ratio and the IC50mut/IC50NT-3 is 3.3 ratio.

As to B3, the IC50mut/IC50NGF12 was determined as 0.3 ratio and the IC50mut/IC50NT-3 was 4.9 ratio.

For the molecule B4, the IC50mut/IC50NGF12 came out at 2.5 ratio and the IC50mut/IC50NT-3 turned out to be 37.2 ratio.

Turning to B5, the IC50mut/IC50NGF12 amounted to 0.7 ratio and the IC50mut/IC50NT-3 came to 10.5 ratio.

For B6, the IC50mut/IC50NGF12 was 0.3 ratio and the IC50mut/IC50NT-3 came to 4.5 ratio.

Another experiment deals with T2, human trkA receptor immunoadhesin (trkA extracellular domain fused to immunoglobulin constant domains) (human, UniProt P04629 33-423).
T2 construct: extracellular domain; not shown: immunoglobulin constant domains
T2 sequence (P04629 33-423): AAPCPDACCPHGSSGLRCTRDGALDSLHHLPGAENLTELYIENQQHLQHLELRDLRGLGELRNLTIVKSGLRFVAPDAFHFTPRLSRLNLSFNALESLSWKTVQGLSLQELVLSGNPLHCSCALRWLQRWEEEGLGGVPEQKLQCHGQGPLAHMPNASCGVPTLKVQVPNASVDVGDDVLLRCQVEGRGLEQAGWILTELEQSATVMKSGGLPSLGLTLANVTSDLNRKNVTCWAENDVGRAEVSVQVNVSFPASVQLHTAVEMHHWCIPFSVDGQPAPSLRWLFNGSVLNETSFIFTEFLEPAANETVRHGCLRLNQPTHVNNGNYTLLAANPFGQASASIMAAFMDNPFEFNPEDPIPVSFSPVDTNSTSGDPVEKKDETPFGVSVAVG
Nature of the experiment: competitive displacement of labeled NGF from human trkA immunoadhesin, 96-well plate.
Consider B1, for which the IC50mut/IC50NGF is 1 ratio.

In turn, B2 yielded an IC50mut/IC50NGF of 1.1 ratio.

B3: the IC50mut/IC50NGF turned out to be 1.3 ratio.

For B4, the IC50mut/IC50NGF was 1.6 ratio.

Take B5: the IC50mut/IC50NGF is 0.9 ratio.

In the case of B6, the IC50mut/IC50NGF came out at 1 ratio.
